This note sets out measurements from the supplement of paper PMC12764529.

± gives the half width of the 95% confidence interval.

Data set [1] can be described thus: folding stability dG unfold from chymotrypsin proteolysis; higher = more stable. How it is done: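 Folding stability of de novo designed mini-proteins (<80 aa, no Cys; designed by TrROS, TrMRF, ProteinMPNN and the joint model) was measured by cDNA display proteolysis with trypsin and chymotrypsin. Each protease was used at 11 concentrations in a threefold dilution series plus a no-protease condition. K50 was inferred by Bayesian fitting of sequencing counts, and dG unfold was derived against a sequence-predicted unfolded-state K50 (Tsuboyama et al. method). Sequences shown include variable-length N-terminal GS-type padding (SAGGSAGG...) inside a display construct carrying a PA tag. Rows were kept only if the AF2 dimer inter-PAE was >15, to exclude likely homo-oligomers.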

Data set [2] can be described thus: folding stability dG unfold (combined trypsin and chymotrypsin); higher = more stable. An outline of the steps:
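Only designs with AlphaFold2 dimer inter-PAE above 15 were retained; each was a mini-protein under 80 residues with no cysteine, in a PA-tagged cDNA display construct. After digestion with trypsin and chymotrypsin and sequencing, K50 was inferred by Bayesian fitting of counts, and unfolding free energy was derived per protease or combined against a sequence-predicted unfolded-state K50 and a shared folded-state K50.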

Take “SAGGAPVHLDTTATTIEPLPTGGPVLRVETRFPDGSTRTGDFASREELLARLEASPDAATIRLAAVASAGGS [r16_757_JUSTAS]”: the “folding stability dG unfold” value in data set [1] came to 3.75 ± 0.234 kJ/mol; in data set [2], 0.851 ± 0.402 kJ/mol.

Consider “SAGGDARVARARIRLTRPFPDEDGVVRWEPVVPPGDPVEVGLVLEDDTLVANAVFDGRPVLATVRLESAGGS [r16_500_TrMRF]”, for which the “folding stability dG unfold” value in data set [1] was -1.7 ± 1.13 kJ/mol; in data set [2] it was less than -4.18 kJ/mol.

With “SAGGDPEEQNKMMERMEKMKPIEPEPVRIPNGIEIEYWPAYGFVEIETWYRDPDGEPKPIGEGWVPVSAGGS [r16_243_TrROS]”, the entries for the “folding stability dG unfold” value in data set [1] and in data set [2] were 1.2 ± 0.393 kJ/mol and -0.616 ± 0.502 kJ/mol, respectively.

As for “SAGGEPGVSAEEAAERLRRELGLPGLERVLEVRLTRAVGDPAGRPPEAESLEVEVEVSPEVRERLAALSAGG [r13_552_JUSTAS]”, the entries for the “folding stability dG unfold” value in data set [1] and in data set [2] were 2.51 ± 0.213 kJ/mol and 0.0334 ± 0.285 kJ/mol, respectively.

“SAGGEPRLGRVLLDIDIAVDPERAEREEDREEALERALEIAERAEARLRELDPDVPVVVNIRLLDVGSAGGS [r8_183_TrMRF]”: the figures for the “folding stability dG unfold” value in data set [1] and in data set [2] were 2.41 ± 0.13 kJ/mol and 1.29 ± 0.711 kJ/mol, respectively.

As to “SAGGEVPVSAEAAAAYDRAVAEGGGGATVPVETPGGRVIVYDPAGTATVLGDDPRTFPLAEVTAFAPSAGGS [r16_664_JUSTAS]”, the “folding stability dG unfold” value in data set [1] was determined as 3.86 ± 0.247 kJ/mol; in data set [2], 1.03 ± 0.301 kJ/mol.

As to “SAGGGMGSSMKAKVEEEIPELKAADSTKVEITVTVTETRSFALPGGELATTTTTTTKTLEVEVPEEESAGGS [r8_203_JUSTAS]”, the “folding stability dG unfold” value is 0.87 ± 1.09 kJ/mol in data set [1] and -0.906 ± 1.42 kJ/mol in data set [2].

Consider “SAGGGMSLTTTTLTFSIDEVDPEELYEELSKKGVTVYSGGKPSNPEEGMEALLKAHPNSSYTVLTRLSAGGS [r8_38_JUSTAS]”, for which the “folding stability dG unfold” value is -2.02 ± 2.26 kJ/mol in data set [1] and less than -4.18 kJ/mol in data set [2].

For the sequence “SAGGGPMPKPVEEVVEEEEDGLRVTTRITYLPTSSTTVVRTTRTVFDPRNGRPLETEELTETVPPGSSAGGS [r16_709_JUSTAS]”, the “folding stability dG unfold” value in data set [1] was -0.154 ± 0.962 kJ/mol; in data set [2] it was -0.758 ± 0.92 kJ/mol.

As to “SAGGGSKVIKVEYEKKDGGKVFIDDITDPGDSVEASIFNPKTGVKIPLPFDKLEELEDFIKEFVDKYSAGGS [r16_736_TrMRF]”, the “folding stability dG unfold” value in data set [1] is -0.646 ± 1.34 kJ/mol; in data set [2], less than -4.18 kJ/mol.

For “SAGGGSMYDPETGTLRDENGNFFRTEEKKIPEVVIELPIELPDNTTLVIPVKFRTEEEAEKAVEELLSAGGS [r8_440_JUSTAS]”, the “folding stability dG unfold” value is 0.112 ± 0.962 kJ/mol in data set [1] and -0.8 ± 1.38 kJ/mol in data set [2].

With “SAGGGVTLTVDVRSKSGGSPEKFTLTLPVAVDPAGSADLDAARAAVAAALPPEAEVLELSLLPPDVPASAGG [r13_504_JUSTAS]”, the “folding stability dG unfold” value in data set [1] was 1.45 ± 0.711 kJ/mol; in data set [2], less than -4.18 kJ/mol.

“SAGGKKEYKILITGKSIPSDGIVYLPNPNKVNIKSNNNYTYKTIPITIIADNNPEKAKKIAKELGLGSAGGS [r16_467_TrMRF]”: the figures for the “folding stability dG unfold” value in data set [1] and in data set [2] were 0.969 ± 1.42 kJ/mol and less than -4.18 kJ/mol, respectively.

Consider “SAGGKKKKREIEIQIPVPDEEMKKNGMDPSEFAEELAKELQSLLPPGFEDIDLDVEPHPNGWPRIKIESAGG [r13_271_TrROS]”, for which the results for the “folding stability dG unfold” value in data set [1] and in data set [2] were -1.17 ± 0.18 kJ/mol and -3.03 ± 1.26 kJ/mol, respectively.

On to “SAGGKKTVEIPIWMPYDDAKNIAKEAVEEAAASNDNVTVTIEIWQWEPDPNGKPEWQPIGKAEIKVPPSAGG [r13_974_TrROS]”, for which the “folding stability dG unfold” value in data set [1] is -0.0546 ± 0.268 kJ/mol; in data set [2], -1.8 ± 0.795 kJ/mol.

As to “SAGGKPKITITIEKLPDGTIRITITYEDGSKVEIEAKVTYDPKTNTLTIEVTIKINGKTYKITITFKSAGGS [r16_391_TrROS_Hall]”, the results for the “folding stability dG unfold” value in data set [1] and in data set [2] were 18.4 ± 1.21 kJ/mol and 18.2 ± 2.85 kJ/mol, respectively.

Turning to “SAGGKSKTIPIQPGDIRKVRDQLKELPDEGDNVRIHNPDNGKEREMDPDQLDDNVEKNGEPPTIHVRSAGGS [r16_263_TrROS]”, the “folding stability dG unfold” value in data set [1] is -2.21 ± 0.301 kJ/mol; in data set [2] it was less than -4.18 kJ/mol.

Consider “SAGGLVREAAAEAGATGVDIREEVPDPNGGTVVTVLPRPGLSPEEAAAVRARIEAAIAEREPGATVVLESAG [r5_101_JUSTAS]”, for which the “folding stability dG unfold” value in data set [1] is 0.674 ± 0.121 kJ/mol; in data set [2], -0.593 ± 0.46 kJ/mol.

As to “SAGGMEEIRELLREGKIDEVVERLKELGYEDVKITPIPDKPVVKIEVVRYDPVTGKPTKFTLTIPLEPSAGG [r13_359_TrMRF]”, the “folding stability dG unfold” value in data set [1] came to 22.1 ± 0.46 kJ/mol; in data set [2], 23.7 ± 1.34 kJ/mol.

For “SAGGMILIERDGRERVLEKAREAVEAEAARARAGDVEDAVLLVDLRVVDPVTGEWEELPVLARVPPASAGGS [r8_163_TrMRF]”, the figures for the “folding stability dG unfold” value in data set [1] and in data set [2] were 1.93 ± 0.318 kJ/mol and -0.198 ± 0.46 kJ/mol, respectively.

With “SAGGMKIKIEITEIKKEGDTVYIKVKITITLPNGKVIKIEMTLRYNKETGKWEIVKIEKIEIFPLPESAGGS [r16_729_TrROS_Hall]”, the entries for the “folding stability dG unfold” value in data set [1] and in data set [2] were 22.2 ± 1.3 kJ/mol and 22.9 ± 2.05 kJ/mol, respectively.

As for “SAGGMKITVTPSTDPNTPLTRETVTVPPTADPEAVAEKLRRAYPDGSTTTVTPRPDGTIVVTTTLPASAGGS [r8_255_JUSTAS]”, the “folding stability dG unfold” value in data set [1] was 0.758 ± 0.347 kJ/mol; in data set [2] it was -1.22 ± 0.289 kJ/mol.

Take “SAGGMKTSPIGTFPLPDPSNGALADTVTIENPKEIIKKSNKEIVKVTVTTTAPDGTPTTTDEIIIIKNSAGG [r13_735_JUSTAS]”: the “folding stability dG unfold” value in data set [1] stood at 2.29 ± 0.276 kJ/mol; in data set [2], 0.618 ± 1.26 kJ/mol.

As to “SAGGMNSMRLTVEFPSPEQREEKLRQIVHKHGFTIKPKEVEPNPNGRMTHTIEINMPPKVRDAFKDLSAGGS [r8_357_TrROS]”, the “folding stability dG unfold” value was -0.637 ± 0.795 kJ/mol in data set [1] and -2.76 ± 0.586 kJ/mol in data set [2].

Regarding “SAGGMPKKITKLELLSETYDPLTNTYTVTVRATFDDGTEKVIELTLPRSEYEKLSKEEIKKRAIDLLLSAGG [r13_512_JUSTAS]”, the “folding stability dG unfold” value stood at 22.1 ± 0.502 kJ/mol in data set [1] and 23.1 ± 1.42 kJ/mol in data set [2].

“SAGGMSVEVDWGETTRRLTFYDESGNPVADAEEPVLDPLTGLSTSRGVSLEELARRAGVPVELPERRSAGGS [r16_778_JUSTAS]”: the “folding stability dG unfold” value in data set [1] came to 3.2 ± 0.105 kJ/mol; in data set [2] it was 1.41 ± 0.243 kJ/mol.

With “SAGGMTIEVPDGFRIDGFRPFPDGRSAVLVRYKGTGKVEIFPFGDRVPEASADEPVEVEVVPIPPELLSAGG [r13_173_TrMRF]”, the entries for the “folding stability dG unfold” value in data set [1] and in data set [2] were 0.647 ± 0.879 kJ/mol and -1.48 ± 0.586 kJ/mol, respectively.

In the case of “SAGGMTIPLEFEFESEEEAKEKAEEIAEELAKSFPEYEVEVKIEIKPVKDPNSDTTKWRVKMEITVGPSAGG [r13_545_JUSTAS]”, the “folding stability dG unfold” value in data set [1] is 18.3 ± 0.837 kJ/mol; in data set [2], 19.1 ± 1.3 kJ/mol.

“SAGGNIEIEIPIPKEDLKDNDFEEAKEYVREYVRMIAREQGLPPGFPIKDIDVQPHPNYYMVKIEIPSAGGS [r16_368_TrROS]”: the “folding stability dG unfold” value is 3.63 ± 1.09 kJ/mol in data set [1] and 1.68 ± 0.669 kJ/mol in data set [2].

Consider “SAGGNIKITDIEMEPMNMPRKNEDGKEKPRPMWQFKVRIRDDGKPIAEVPFTSMDDMRNAVKKLLKKSAGGS [r8_21_TrROS]”, for which the “folding stability dG unfold” value is -0.403 ± 1.09 kJ/mol in data set [1] and -0.76 ± 1.63 kJ/mol in data set [2].

“SAGGNIPPGETWKIKFPGKPIEIQMQQINGKPMYRLRDKNNKPHGTMTPDEADEFLDKLPPNWEIERYSAGG [r13_657_TrROS]”: the “folding stability dG unfold” value in data set [1] is -1.06 ± 1.55 kJ/mol; in data set [2] it was -1.48 ± 0.92 kJ/mol.

Take “SAGGPKVVKGKKVEKVELEVGKLPDGVELVKVKVRSKEVDKEFTFTFEPGQDLGEFGKATGFDIGVESAGGS [r16_676_TrMRF]”: the entries for the “folding stability dG unfold” value in data set [1] and in data set [2] were 2.31 ± 0.669 kJ/mol and 0.587 ± 0.711 kJ/mol, respectively.
